Test results: IntAct's records for PubMed 8626665

B1: Transcription initiation factor IIA subunit 2 (Homo sapiens), P52657 (parent)
chain: MAYQLYRNTTLGNSLQESLDELIQSQQITPQLALQVLLQFDKAINAALAQRVRNRVNFRGSLNTYRFCDNVWTFVLNDVEFREVTELIKVDKVKIVACDGKNTGSNTTE
B2: Transcription initiation factor IIA subunit 2 (Homo sapiens), P52657 (parent)
chain: B1 chain
partner: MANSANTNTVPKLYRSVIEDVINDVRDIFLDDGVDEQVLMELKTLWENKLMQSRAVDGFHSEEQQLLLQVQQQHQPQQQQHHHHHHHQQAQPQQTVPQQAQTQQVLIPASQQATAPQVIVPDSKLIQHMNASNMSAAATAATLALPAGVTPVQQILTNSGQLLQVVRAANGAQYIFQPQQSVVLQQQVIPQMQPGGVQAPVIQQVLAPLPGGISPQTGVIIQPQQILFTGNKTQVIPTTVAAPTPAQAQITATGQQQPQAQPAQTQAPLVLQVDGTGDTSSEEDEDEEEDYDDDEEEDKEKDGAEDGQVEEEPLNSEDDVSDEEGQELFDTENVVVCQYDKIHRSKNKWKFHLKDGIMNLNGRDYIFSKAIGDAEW

Variants of: B1
Settings: with tbp_human TBP

Effect of a mutation on the interaction, decreasing interaction:
MAYQLYRNTTLGNSLQESLAELIQSQQITPQLALQVLLQFDKAINAALAQRVRNRVNFRGSLNTYRFCDNVWTFVLNDVEFREVTELIKVDKVKIVACDGKNTGSNTTE [D20A]
MAYQLYRNTTLGNSLQESLDELIQSQQITPQLALQVLLQFDKAINAALAQRVRNRVNFRGSLNTARFCDNVWTFVLNDVEFREVTELIKVDKVKIVACDGKNTGSNTTE [Y65A]

Variants of: B2
Settings: with tf2aa_human GTF2A1, P52655

Effect of a mutation on the interaction, decreasing interaction:
MAYQLYRNTTLGNSLQESLDELIQSQQITPQLALQVLLQFDKAINAALAQRVRNRVNFRGSLNTYRFCDNVWTFVLNDVEFREVTELIKVDKVKIVACDGKNTGSNTTA [E109A]
MAYQLYRNTTLGNSLQESLDELIQSQQITPQLALQVLLQFAKAINAALAQRVRNRVNFRGSLNTYRFCDNVWTFVLNDVEFREVTELIKVDKVKIVACDGKNTGSNTTE [D41A]
MAYQLYRNTTLGNSLQESLDELIQSQQITPQLALQVLLQADKAINAALAQRVRNRVNFRGSLNTYRFCDNVWTFVLNDVEFREVTELIKVDKVKIVACDGKNTGSNTTE [F40A]
MAYQLYRNTTLGNSLQESLDELIQSQQITPQLALQVLLQFDAAINAALAQRVRNRVNFRGSLNTYRFCDNVWTFVLNDVEFREVTELIKVDKVKIVACDGKNTGSNTTE [K42A]
